Assays:
Grb2 SH2 = Grb2 SH2 (UniProt P62993); assay: SH2 binding enrichment of the phosphorylated peptide, bacterial display (enrichment ratio); higher = better substrate or ligand; peptides without Tyr show the background
c-Src SH2 = assay: as above
SHP2-C SH2 = assay: as above
AncSZ = assay: phosphorylation enrichment, bacterial display (enrichment ratio); higher = better substrate or ligand; peptides without Tyr show the background
Hck = Hck (UniProt P08631); assay: as above
EPHB2 = EPHB2 (UniProt P29323); assay: as above
Sequence of EPHB2 (P29323 whole entry, looked up): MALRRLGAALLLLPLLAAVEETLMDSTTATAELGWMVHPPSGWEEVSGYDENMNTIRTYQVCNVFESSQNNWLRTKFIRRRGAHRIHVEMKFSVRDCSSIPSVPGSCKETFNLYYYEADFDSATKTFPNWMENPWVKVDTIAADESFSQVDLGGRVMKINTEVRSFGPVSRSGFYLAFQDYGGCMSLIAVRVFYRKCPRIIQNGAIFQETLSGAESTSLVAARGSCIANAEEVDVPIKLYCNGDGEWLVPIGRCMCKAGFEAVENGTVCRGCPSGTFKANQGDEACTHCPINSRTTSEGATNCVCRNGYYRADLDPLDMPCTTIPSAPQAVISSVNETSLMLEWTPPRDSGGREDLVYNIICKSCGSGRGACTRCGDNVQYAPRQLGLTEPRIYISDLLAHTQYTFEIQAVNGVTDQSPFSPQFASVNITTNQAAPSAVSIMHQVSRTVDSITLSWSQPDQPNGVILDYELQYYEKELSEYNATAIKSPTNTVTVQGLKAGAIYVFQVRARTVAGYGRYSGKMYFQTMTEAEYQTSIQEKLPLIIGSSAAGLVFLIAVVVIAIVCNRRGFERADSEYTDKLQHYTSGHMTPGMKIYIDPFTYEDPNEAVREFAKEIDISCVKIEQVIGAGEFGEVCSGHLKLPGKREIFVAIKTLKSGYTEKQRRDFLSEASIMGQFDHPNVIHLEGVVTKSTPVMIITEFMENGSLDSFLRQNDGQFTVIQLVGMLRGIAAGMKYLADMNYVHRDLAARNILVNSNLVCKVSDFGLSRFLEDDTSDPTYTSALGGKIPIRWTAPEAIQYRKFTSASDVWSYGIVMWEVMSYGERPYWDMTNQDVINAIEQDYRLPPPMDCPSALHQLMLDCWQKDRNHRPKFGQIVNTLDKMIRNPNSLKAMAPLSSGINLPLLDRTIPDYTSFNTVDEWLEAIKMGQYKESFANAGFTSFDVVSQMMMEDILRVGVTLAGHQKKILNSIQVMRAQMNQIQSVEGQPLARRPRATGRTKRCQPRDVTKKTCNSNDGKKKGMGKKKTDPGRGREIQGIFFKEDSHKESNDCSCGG

EPHB1 = EPHB1 (UniProt P54762); assay: as above
Fyn = Fyn (UniProt P06241); assay: as above
Sequence of Fyn (P06241 whole entry, looked up): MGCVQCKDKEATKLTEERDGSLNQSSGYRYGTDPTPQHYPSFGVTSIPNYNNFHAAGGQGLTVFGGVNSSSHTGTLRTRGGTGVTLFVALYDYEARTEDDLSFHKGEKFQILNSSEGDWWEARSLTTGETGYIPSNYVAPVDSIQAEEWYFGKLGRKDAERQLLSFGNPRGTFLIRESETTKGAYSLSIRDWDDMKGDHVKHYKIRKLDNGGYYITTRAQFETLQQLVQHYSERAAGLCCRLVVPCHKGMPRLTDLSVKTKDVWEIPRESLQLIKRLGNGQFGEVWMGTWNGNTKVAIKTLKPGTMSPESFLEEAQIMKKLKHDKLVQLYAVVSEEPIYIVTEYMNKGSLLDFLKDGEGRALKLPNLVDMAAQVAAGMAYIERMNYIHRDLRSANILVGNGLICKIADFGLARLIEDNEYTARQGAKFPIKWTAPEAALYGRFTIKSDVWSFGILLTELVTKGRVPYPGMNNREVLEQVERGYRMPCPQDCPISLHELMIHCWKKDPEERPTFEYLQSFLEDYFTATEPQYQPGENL

FGFR3 = FGFR3 (UniProt P22607); assay: as above
MERTK = MERTK (UniProt Q12866); assay: as above
Jak2 = Jak2 (UniProt O60674); assay: as above
Sequence of Jak2 (O60674 whole entry, looked up): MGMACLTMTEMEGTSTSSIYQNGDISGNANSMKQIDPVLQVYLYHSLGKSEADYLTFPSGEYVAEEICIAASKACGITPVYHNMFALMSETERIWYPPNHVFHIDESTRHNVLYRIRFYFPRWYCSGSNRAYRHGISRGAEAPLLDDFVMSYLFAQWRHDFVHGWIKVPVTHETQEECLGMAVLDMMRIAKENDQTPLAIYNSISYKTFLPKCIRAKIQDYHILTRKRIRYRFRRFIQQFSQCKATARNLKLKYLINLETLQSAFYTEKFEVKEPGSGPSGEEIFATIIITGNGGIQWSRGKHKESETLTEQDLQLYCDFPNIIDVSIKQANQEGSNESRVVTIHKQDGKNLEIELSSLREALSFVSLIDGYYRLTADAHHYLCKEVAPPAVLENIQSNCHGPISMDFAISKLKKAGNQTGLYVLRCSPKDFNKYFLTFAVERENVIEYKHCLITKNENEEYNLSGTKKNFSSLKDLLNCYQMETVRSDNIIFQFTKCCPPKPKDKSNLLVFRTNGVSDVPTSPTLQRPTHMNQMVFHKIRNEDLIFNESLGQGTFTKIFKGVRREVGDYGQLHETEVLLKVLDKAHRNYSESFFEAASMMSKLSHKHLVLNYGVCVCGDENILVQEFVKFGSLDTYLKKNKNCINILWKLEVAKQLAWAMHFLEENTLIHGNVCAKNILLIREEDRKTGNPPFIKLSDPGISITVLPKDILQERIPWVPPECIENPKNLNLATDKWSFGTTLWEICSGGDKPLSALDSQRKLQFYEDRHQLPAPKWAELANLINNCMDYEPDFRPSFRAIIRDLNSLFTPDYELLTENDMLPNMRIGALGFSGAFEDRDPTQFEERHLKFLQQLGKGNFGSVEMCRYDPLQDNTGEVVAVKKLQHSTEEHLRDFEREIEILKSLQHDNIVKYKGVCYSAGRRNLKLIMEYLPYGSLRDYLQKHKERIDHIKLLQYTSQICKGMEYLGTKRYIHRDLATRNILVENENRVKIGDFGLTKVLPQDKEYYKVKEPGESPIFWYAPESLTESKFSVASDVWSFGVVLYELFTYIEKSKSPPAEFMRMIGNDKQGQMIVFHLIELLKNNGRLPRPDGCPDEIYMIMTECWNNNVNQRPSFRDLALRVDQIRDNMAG

Fer (mouse) = assay: as above
c-Src = assay: as above
Fes = Fes (UniProt P07332); assay: as above
Sequence of Fes (P07332 whole entry, looked up): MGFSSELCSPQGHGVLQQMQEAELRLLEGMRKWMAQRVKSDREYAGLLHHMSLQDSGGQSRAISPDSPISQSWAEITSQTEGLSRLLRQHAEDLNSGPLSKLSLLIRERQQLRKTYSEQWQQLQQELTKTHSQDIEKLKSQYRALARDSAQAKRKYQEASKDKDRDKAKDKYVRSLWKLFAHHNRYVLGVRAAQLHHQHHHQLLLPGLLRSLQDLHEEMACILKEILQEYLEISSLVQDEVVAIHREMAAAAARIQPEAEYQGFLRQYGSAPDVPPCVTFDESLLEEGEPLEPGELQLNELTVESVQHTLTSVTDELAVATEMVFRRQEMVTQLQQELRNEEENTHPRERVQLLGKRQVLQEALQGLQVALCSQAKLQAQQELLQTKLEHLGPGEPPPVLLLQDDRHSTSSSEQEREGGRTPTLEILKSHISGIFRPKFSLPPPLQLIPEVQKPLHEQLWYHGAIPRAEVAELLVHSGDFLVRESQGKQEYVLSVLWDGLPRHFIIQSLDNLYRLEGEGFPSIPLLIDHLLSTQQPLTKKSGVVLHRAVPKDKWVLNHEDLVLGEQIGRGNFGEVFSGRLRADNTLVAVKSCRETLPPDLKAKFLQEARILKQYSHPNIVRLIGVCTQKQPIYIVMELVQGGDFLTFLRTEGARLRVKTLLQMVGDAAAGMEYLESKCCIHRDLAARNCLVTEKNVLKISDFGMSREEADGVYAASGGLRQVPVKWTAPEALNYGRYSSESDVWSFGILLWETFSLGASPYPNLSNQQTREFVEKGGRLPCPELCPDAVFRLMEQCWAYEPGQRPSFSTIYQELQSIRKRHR

c-Abl (mouse) = assay: as above
FGFR1 = FGFR1 (UniProt P11362); assay: as above
Sequence of FGFR1 (P11362 whole entry, looked up, the tested form may be a part): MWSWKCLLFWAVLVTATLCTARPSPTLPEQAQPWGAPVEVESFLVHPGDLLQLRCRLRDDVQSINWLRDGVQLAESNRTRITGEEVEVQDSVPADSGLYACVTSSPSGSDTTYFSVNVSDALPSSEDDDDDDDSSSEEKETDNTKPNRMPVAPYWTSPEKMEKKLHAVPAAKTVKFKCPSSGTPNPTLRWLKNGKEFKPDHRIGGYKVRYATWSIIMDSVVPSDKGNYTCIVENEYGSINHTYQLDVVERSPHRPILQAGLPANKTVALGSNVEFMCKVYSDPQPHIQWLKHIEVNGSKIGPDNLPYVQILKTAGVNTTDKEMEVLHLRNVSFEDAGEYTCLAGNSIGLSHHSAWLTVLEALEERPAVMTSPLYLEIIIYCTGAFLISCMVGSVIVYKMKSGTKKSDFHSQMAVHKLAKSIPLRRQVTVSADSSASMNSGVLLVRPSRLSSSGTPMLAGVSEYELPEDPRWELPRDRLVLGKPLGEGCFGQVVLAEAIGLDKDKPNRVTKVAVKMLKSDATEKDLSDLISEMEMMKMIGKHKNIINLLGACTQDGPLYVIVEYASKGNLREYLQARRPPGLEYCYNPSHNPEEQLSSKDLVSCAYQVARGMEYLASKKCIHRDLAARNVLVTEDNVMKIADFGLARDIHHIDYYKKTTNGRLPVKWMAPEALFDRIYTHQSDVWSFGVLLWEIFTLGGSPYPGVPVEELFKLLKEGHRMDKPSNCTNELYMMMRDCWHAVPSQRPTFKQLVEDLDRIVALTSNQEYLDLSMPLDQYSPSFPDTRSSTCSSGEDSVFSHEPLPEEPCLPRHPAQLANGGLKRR
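Throughout, for SH2 binding enrichment of the phosphorylated peptide, bacterial display: peptide library displayed on the E. coli surface as eCPX fusions, selected cells deep-sequenced, score is each peptide's frequency after selection divided by its frequency in the input.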
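Throughout, for phosphorylation enrichment, bacterial display: 11-residue human phosphosite peptides and single-mutation variants displayed on the E. coli surface, counted by deep sequencing, each peptide's frequency after selection divided by its frequency in the unselected input library; frequency after pTyr selection over input frequency; kinase dosed for 20-30% of maximal phosphorylation in three min.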

Sequence of Hck (P08631 whole entry, looked up): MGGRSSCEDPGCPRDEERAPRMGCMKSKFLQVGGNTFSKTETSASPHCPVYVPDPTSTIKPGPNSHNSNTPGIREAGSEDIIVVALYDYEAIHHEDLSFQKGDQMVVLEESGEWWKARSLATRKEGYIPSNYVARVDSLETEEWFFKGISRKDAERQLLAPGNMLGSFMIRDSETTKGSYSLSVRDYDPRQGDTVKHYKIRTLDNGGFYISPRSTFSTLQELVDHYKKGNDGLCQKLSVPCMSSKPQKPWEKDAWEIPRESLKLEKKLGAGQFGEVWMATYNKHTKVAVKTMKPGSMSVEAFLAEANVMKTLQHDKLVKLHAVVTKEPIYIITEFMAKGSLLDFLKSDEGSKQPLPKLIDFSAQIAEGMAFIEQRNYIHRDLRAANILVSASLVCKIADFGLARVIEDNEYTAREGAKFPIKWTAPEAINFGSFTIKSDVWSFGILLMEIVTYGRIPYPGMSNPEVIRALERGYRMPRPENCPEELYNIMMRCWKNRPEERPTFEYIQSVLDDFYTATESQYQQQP

Row | SH2 binding enrichment (Grb2 SH2) | SH2 binding enrichment (c-Src SH2) | SH2 binding enrichment (SHP2-C SH2) | Sequence | phosphorylation enrichment (AncSZ) | phosphorylation enrichment (Hck) | phosphorylation enrichment (EPHB2) | phosphorylation enrichment (EPHB1) | phosphorylation enrichment (Fyn) | phosphorylation enrichment (FGFR3) | phosphorylation enrichment (MERTK) | phosphorylation enrichment (Jak2) | phosphorylation enrichment (Fer (mouse)) | phosphorylation enrichment (c-Src) | phosphorylation enrichment (Fes) | phosphorylation enrichment (c-Abl (mouse)) | phosphorylation enrichment (FGFR1)
1 | 2.13 | 2.99 | 1.76 | RPGSGYTNIMQ [PKLR_Y564_R569Q] | 0.775 | 0.548 | 0.484 | 0.61 | 0.469 | 0.517 | 0.524 | 0.463 | 0.466 | 0.597 | 0.834 | 0.549 | 0.763
2 | 0.739 | 0.664 | 0.644 | RQNNSYTCYTA [SLC20A2_Y386_R382Q] | 1.11 | 0.694 | 0.76 | 0.597 | 0.58 | 0.659 | 0.476 | 0.787 | 0.528 | 0.915 | 0.897 | 0.582 | 0.557
3 | 1.34 | 0.853 | 1.05 | RQQEVYLLFKQ [RARRES1_Y159_D158V_YF] | 1.57 | 0.66 | 0.589 | 0.915 | 0.892 | 1.19 | 0.478 | 1.37 | 0.576 | 0.788 | 1.48 | 1.64 | 0.789
4 | 0.868 | 0.572 | 0.397 | RRAKGYPINLF [ITGB2_Y125_D128N_YF] | 0.49 | 0.448 | 0.613 | 0.576 | 0.435 | 0.465 | 0.476 | 0.603 | 0.454 | 0.554 | 0.571 | 0.537 | 0.448
5 | 1.07 | 0.498 | 0.495 | RRIFSYRGHLW [VHL_Y112_H110Y_YF] | 0.834 | 0.712 | 0.541 | 0.47 | 0.763 | 0.619 | 0.6 | 0.587 | 0.536 | 0.905 | 0.897 | 1.1 | 0.731
6 | 1.34 | 0.893 | 0.691 | RRNVFYFSFLL [PTEN_Y177_Y174N_YF] | 1.81 | 0.923 | 1.03 | 0.998 | 0.984 | 0.709 | 0.937 | 1.69 | 0.852 | 1.29 | 1.62 | 2.83 | 0.743
7 | 1.17 | 0.944 | 0.873 | RVILRYVNPGN [LAMA3_Y791_T796N] | 1.47 | 0.775 | 0.711 | 0.836 | 0.617 | 1.12 | 0.709 | 1.79 | 0.609 | 0.75 | 2.02 | 1.61 | 0.614
8 | 0.925 | 0.862 | 0.755 | SARVRYLMAEK [LDHB_Y173_F171V] | 0.579 | 0.423 | 0.521 | 0.46 | 0.43 | 0.532 | 0.417 | 0.39 | 0.439 | 0.38 | 0.756 | 0.472 | 0.482

Further lines, the sequence ahead of its results:

Row | Sequence | SH2 binding enrichment (Grb2 SH2) | SH2 binding enrichment (c-Src SH2) | SH2 binding enrichment (SHP2-C SH2) | phosphorylation enrichment (AncSZ) | phosphorylation enrichment (Hck) | phosphorylation enrichment (EPHB2) | phosphorylation enrichment (EPHB1) | phosphorylation enrichment (Fyn) | phosphorylation enrichment (FGFR3) | phosphorylation enrichment (MERTK) | phosphorylation enrichment (Jak2) | phosphorylation enrichment (Fer (mouse)) | phosphorylation enrichment (c-Src) | phosphorylation enrichment (Fes) | phosphorylation enrichment (c-Abl (mouse)) | phosphorylation enrichment (FGFR1)
9 | RSRSPYSSRHS [CDK13_Y415] | 0.793 | 0.433 | 0.543 | 0.596 | 0.548 | 0.614 | 0.422 | 0.557 | 0.489 | 0.625 | 0.472 | 0.439 | 0.446 | 0.634 | 0.637 | 0.701
10 | RSSGGYEPRGR [FUS_Y239] | 0.674 | 0.488 | 0.521 | 0.652 | 0.379 | 0.452 | 0.323 | 0.412 | 0.403 | 0.425 | 0.683 | 0.418 | 0.358 | 0.569 | 0.384 | 0.555
11 | RSSNTYTLMDV [ALCAM_Y298_T301M] | 0.78 | 6.21 | 0.7 | 1.01 | 0.676 | 0.868 | 0.633 | 1.55 | 1.17 | 4.15 | 0.309 | 1.42 | 1.58 | 0.793 | 0.614 | 1.26
12 | RTLIRYANLGN [BEST1_Y131] | 3.12 | 0.802 | 1.12 | 1.03 | 0.481 | 0.666 | 0.918 | 0.973 | 0.654 | 0.706 | 0.793 | 0.737 | 0.685 | 1.14 | 1.04 | 0.621
13 | RVEDACILTCN [CCT6A_Y229_Y229C] | 0.85 | 0.657 | 0.738 | 0.994 | 0.751 | 0.688 | 0.622 | 0.551 | 0.968 | 0.683 | 1.18 | 0.571 | 0.727 | 1.12 | 0.86 | 0.708
14 | RVLKLYGCSPS [ASTL_Y279] | 0.895 | 0.566 | 0.93 | 1.03 | 0.564 | 0.761 | 0.634 | 0.728 | 0.608 | 0.461 | 0.983 | 0.981 | 0.516 | 0.943 | 0.719 | 0.367
15 | SDFFAYSPVQE [H6PD_Y449_R453Q_YF] | 0.704 | 1.83 | 0.639 | 1.44 | 0.647 | 0.686 | 0.783 | 0.489 | 0.807 | 0.645 | 1.36 | 1.13 | 0.611 | 1.32 | 0.922 | 0.577
